According to US20110294728A1, “Antiviral Polypeptides” (priority 2008, published 2011):
Where no end group is shown, it is not given here.

Experiments:
[1] = target: T1, HIV-1 reverse transcriptase, heterodimeric p66/p51 (HIV-1), P03366; test: RT polymerase inhibition assay, Ki
[2] = target: T2, RT:p/t (HIV-1 RT heterodimer pre-bound to DNA/DNA primer/template) (HIV-1), P03366; test: steady-state fluorescence titration, 200 nM FITC-PAW titrated with RT:p/t
HIV-1 integrase (HIV-1) [3] = test: cell-based or functional assay
[4] = target: T2, RT:p/t (HIV-1 RT heterodimer pre-bound …); test: steady-state fluorescence titration
[5] = target: T1, HIV-1 reverse transcriptase, …; test: RT polymerase inhibition assay, Ki from Dixon plot
[6] = target: T1, HIV-1 reverse transcriptase, …; test: steady-state fluorescence titration, 200 nM FITC-PAW titrated with RT
HIV-1 integrase (HIV-1) [7] = test: steady-state fluorescence anisotropy, fluorescein-labelled peptide titrated with IN
[8] = target: T1, HIV-1 reverse transcriptase, …; test: RT polymerase inhibition assay
HIV-1 integrase (HIV-1) [9] = test: IN 3′ processing inhibition, fluorescence anisotropy
HIV-1 integrase (HIV-1) [10] = test: steady state fluorescence and anisotropy
HIV-1 integrase (HIV-1) [11] = test: dissociation of the IN/LEDGF complex, AlphaScreen and immunoprecipitation; partner displaced: LEDGF
[12] = target: HA-tagged Integrase (stably expressed in HeLa cells) (HIV-1); test: cell-based or functional assay
[13] = target: T2, RT:p/t (HIV-1 RT heterodimer pre-bound …); test: steady-state fluorescence titration, 20 nM RT:FAM-p/t titrated with PAW

B1: PAW-FITC (peptide)
peptide: GTKWLTEWIPLTAEAEC
modifications: not fully specified
With B1 the fold greater Ki than PAW [1] was 3.8 fold, the Kd [2] was 0.0071 µM and the quenching of FITC-PAW fluorescence [2] was 57%. It also gave an IC50 3′-proc (gel electrophoresis) (HIV-1 integrase (HIV-1) [3]) of 10 µM, a fold increase in affinity against RT without p/t [4] of 5 fold and a fold lower Kd than unlabelled PAW [4] of 5.6 fold. It also gave a Ki [5] of 2.7 µM, a Kd [6] of 0.033 µM and a quenching of FITC-PAW fluorescence [6] of 39%. The Kd (HIV-1 integrase (HIV-1) [7]) was 0.4 µM and the Δr (change of steady-state anisotropy) (HIV-1 integrase (HIV-1) [7]) was 0.06.

B2: P6 (peptide)
peptide: GTKAATEVIPLTEEAE
modifications: not checked
Binder B2 has a Ki [5] of 5.7 µM.

B3: P28 (peptide)
peptide: GTKWATEWAPLTAEAE
modifications: not checked
In the case of B3, the Ki [5] is reported as 2 µM.

B4: P27C1 (peptide)
peptide: CGTKWLTEWIPLTAEC
modifications: not checked
B4 was tested, and the Ki [8] was 0.042 µM and the Ki (HIV-1 integrase (HIV-1) [9]) was over 100 µM.

B5: Pscramble (peptide)
peptide: GAKTETLVIPETELEA
modifications: not checked
With B5 the Ki [5] was 61 µM.

B6: P5 (peptide)
peptide: GTKGLTEVIPLTEEAE
modifications: not checked
B6 showed a fold reduction in potency against P1 [1] of 2.7 fold and a Ki [5] of 20 µM.

B7: P12 (peptide)
peptide: GTKALTEVIPATEEAE
modifications: not checked
B7 showed a Ki [5] of 22 µM.

B8: PAW-C1 (peptide)
peptide: CGTKWLTEWIPLTAEAEC
modifications: not checked
Work on B8 yielded a Kd (HIV-1 integrase (HIV-1) [10]) of 0.29 µM, a Ki [8] of 0.2 µM and a Ki (HIV-1 integrase (HIV-1) [9]) of 21 µM.

B9: P13 (peptide)
peptide: GTKALTEVIPLAEEAE
modifications: not checked
Binder B9 has a Ki [5] of 10.2 µM.

B10: P27 (peptide)
peptide: GTKWLTEWIPLTAE
modifications: not checked
For B10, the fold increase in efficiency against PAW [1] was 14 fold, the Kd (HIV-1 integrase (HIV-1) [10]) was over 100 µM and the Ki [8] was 0.05 µM. The EC50 (µM) 3′processing (HIV-1 integrase (HIV-1) [3]) was over 100 µM, the EC50 (µM) IN/DNA binding (HIV-1 integrase (HIV-1) [3]) was over 100 µM and the EC50 (µM) IN/DNA dissociation (HIV-1 integrase (HIV-1) [3]) was over 100 µM. For the same binder, the Ki [5] was 0.05 µM and the Ki (HIV-1 integrase (HIV-1) [9]) was over 100 µM.

B11: P10 (peptide)
peptide: GTKALTEVAPLTEEAE
modifications: not checked
B11 showed a Ki [5] of 7.3 µM.

B12: P17 (peptide)
peptide: GTKAWTEVWPL
modifications: not checked
In the case of B12, the fold reduction in efficiency against PAW [1] is reported as 50 fold and the Ki [5] is reported as 35 µM.

B13: P26 (peptide)
peptide: KWLTEWIPLTAEAE
modifications: not checked
In the case of B13, the fold reduction in efficiency against PAW [1] is reported as 2.5 fold, the Kd (HIV-1 integrase (HIV-1) [10]) is reported as 0.32 µM and the EC50 (HIV-1 integrase (HIV-1) [11]) is reported as over 50 µM. The EC50 (µM) 3′processing (HIV-1 integrase (HIV-1) [3]) was 28 µM, the EC50 (µM) IN/DNA binding (HIV-1 integrase (HIV-1) [3]) was 54 µM and the EC50 (µM) IN/DNA dissociation (HIV-1 integrase (HIV-1) [3]) was 67 µM. For the same binder, the Ki [5] was 1.8 µM.

B14: P2 (peptide)
peptide: ATKALTEVIPLTEEAE
modifications: not checked
For B14, the Ki [5] was 28 µM.

B15: P4 (peptide)
peptide: GTAALTEVIPLTEEAE
modifications: not checked
Work on B15 yielded a fold reduction in potency against P1 [1] of 2 fold and a Ki [5] of 15 µM.

B16: P18 (peptide)
peptide: GTKALTEVIPLT
modifications: not checked
With B16 the Ki [5] was 53 µM.

B17: P1 (peptide)
peptide: GTKALTEVIPLTEEAE
modifications: not checked
Work on B17 yielded a fold increase in potency against Pep-A [1] of 5 fold and a Ki [5] of 7.5 µM.

B18: P8 (peptide)
peptide: GTKALTAVIPLTEEAE
modifications: not checked
Binder B18 has a fold reduction in efficiency against P1 [1] of 8 fold and a Ki [5] of 57 µM.

B19: P16C1 (peptide)
peptide: CGTKWLTEVWPLC
modifications: not checked
With B19 the Kd (HIV-1 integrase (HIV-1) [10]) was 0.09 µM, the Ki [8] was 32.1 µM and the Ki (HIV-1 integrase (HIV-1) [9]) was 4.3 µM.

B20: PAW (peptide)
peptide: GTKWLTEWIPLTAEAE
modifications: not checked
For B20, the fold improvement in efficiency over P6 [1] was 10 fold, the fold improvement in efficiency over Pep-A [1] was 50 fold and the Kd (HIV-1 integrase (HIV-1) [10]) was 0.23 µM. It also gave an EC50 (HIV-1 integrase (HIV-1) [11]) of 2 µM, a Ki [8] of 0.7 µM and an EC50 (µM) 3′processing (HIV-1 integrase (HIV-1) [3]) of 12 µM. For the same binder, the EC50 (µM) IN/DNA binding (HIV-1 integrase (HIV-1) [3]) was 10 µM, the EC50 (µM) IN/DNA dissociation (HIV-1 integrase (HIV-1) [3]) was 15 µM and the IC50 3′-proc (HIV-1 integrase (HIV-1) [3]) was 12.7 µM. For the same binder, the IN half-life (cycloheximide treatment, 1 µM PAW) [12] was 17 min, the integrase located in the nucleus (High Content Screening, HeLa cells) [12] was 35% and the Ki [5] was 0.7 µM. It also gave a Kd [13] of 0.04 µM, a quenching of fluorescence of FAM-labelled p/t [13] of 39% and a Ki (HIV-1 integrase (HIV-1) [9]) of 12 µM.

B21: P29 (peptide)
peptide: KWLTEWIPLTAE
modifications: not checked
In the case of B21, the Ki [5] is reported as 1 µM.

B22: P7 (peptide)
peptide: GTKALAEVIPLTEEAE
modifications: not checked
B22 gave a fold reduction in potency against P1 [1] of 2 fold and a Ki [5] of 13.5 µM.

B23: P19 (peptide)
peptide: GTKAATEVIPLT
modifications: not checked
Work on B23 yielded a Ki [5] of 49 µM.

B24: P9 (peptide)
peptide: GTKALTEAIPLTEEAE
modifications: not checked
B24 was tested, and the fold reduction in potency against P1 [1] was 2 fold and the Ki [5] was 15 µM.

B25: PAW-C2 (peptide)
peptide: GCKWLTEWIPLTAEAEC
modifications: not checked
B25 showed a Kd (HIV-1 integrase (HIV-1) [10]) of 0.12 µM, a Ki [8] of 1.4 µM and a Ki (HIV-1 integrase (HIV-1) [9]) of 8 µM.

B26: P16 (peptide)
peptide: GTKWLTEVWPL
modifications: not checked
Binder B26 has a fold reduction in efficiency against PAW [1] of 20 fold, a Kd (HIV-1 integrase (HIV-1) [10]) of 0.12 µM and an EC50 (HIV-1 integrase (HIV-1) [11]) of 0.8 µM. The Ki [8] was 14.4 µM, the EC50 (µM) 3′processing (HIV-1 integrase (HIV-1) [3]) was 10 µM and the EC50 (µM) IN/DNA binding (HIV-1 integrase (HIV-1) [3]) was 8 µM. It also gave an EC50 (µM) IN/DNA dissociation (HIV-1 integrase (HIV-1) [3]) of 11 µM, a Ki [5] of 14 µM and a Ki (HIV-1 integrase (HIV-1) [9]) of 10 µM.

B27: Pep-A (peptide)
peptide: RGTKALTEVIPLTEEAE
modifications: not checked
B27 was tested, and the Ki [5] was 35 µM.

B28: P24 (peptide)
peptide: GTKWLTEWIPL
modifications: not checked
B28 gave a Kd (HIV-1 integrase (HIV-1) [10]) of 0.35 µM, an EC50 (HIV-1 integrase (HIV-1) [11]) of 13 µM and an EC50 (µM) 3′processing (HIV-1 integrase (HIV-1) [3]) of 33 µM. It also gave an EC50 (µM) IN/DNA binding (HIV-1 integrase (HIV-1) [3]) of 35 µM, an EC50 (µM) IN/DNA dissociation (HIV-1 integrase (HIV-1) [3]) of 21 µM and a Ki [5] of 0.7 µM.

B29: P11 (peptide)
peptide: GTKALTEVIALTEEAE
modifications: not checked
With B29 the Ki [5] was 7 µM.
